# Results: the nanobody polyreactivity screen of Harvey et al. (2022)
# Experiment: yeast display, Sf9 membrane polyspecificity reagent, FACS + sequencing; frameworks hold sequencing errors
# Outline: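 Galactose induction of a Saccharomyces cerevisiae BJ5465 synthetic nanobody display library ran 36–48 hours. The cells were then stained for 1 hour at 4 °C with 10% biotinylated, detergent-solubilized Sf9 membrane reagent, pulled down on streptavidin microbeads and FACS-sorted into low and high (top ~1%) gates on expression and reagent-binding fluorescence. Labels for polyreactivity follow the gate of origin.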
row,Sequence,polyreactivity (PSR sort gate)
1,QVQLVESGGGLVQAGGSLRLSCAASGRIGYYAMGWYRQAPGKERELVATISRGGSTKYADSVKGRFTISRDNAKNTVYLQMNSLKPEDTAVYYCAAARAPRYDYWGQGTQVTVSS,high polyreactivity
2,QVQLVESGGGLVQAGGSLRLSCAASGRIIAYYAMGWYRQAPGKERELVAAISRRGGSTYYADSVKGRFTISRDNAKNTVYLQMNSLKPEDTAVYYCDTLTLESFSALYYWGQGTQVTVSS,low polyreactivity
3,QVQLVESGGGLVQAGGSLRLSCAASGRIIDRNAMGWYRQAPGKERELFAAISSSGSTNYADSVKGRFTISRDNAKNTVYLQMNSLKPEDTAVYYCAARWRYVLAAGTRPVSFDYWGQGTQVTVSS,low polyreactivity
4,QVQLVESGGGLVQAGGSLRLSCAASGRIIEYYAMGWYRQAPGKERELVAAISSGGSTYYADSVKGRFTISRDNAKNTVYLQMNSLKPEDTAVYYCNTRYVYTRGGPLKRDYWGQGTQVTVSS,high polyreactivity
5,QVQLVESGGGLVQAGGSLRLSCAASGRIIGAYAMGWYRQAPGKERELVARISWSGGTTYYADSVKGRFTISRDNAKNTVYLQMDSLKPEDTAVYYCAARYSYYVTGGISKYDYWGQGTQVSVSS,low polyreactivity
6,QVQLVESGGGLVQAGGSLRLSCAASGRIIGNNAMGWYRHAPGKERELVATISSRGGSTYYAESVKGRFTISRDNAKNTVYFQMNSLKPEDTAVYYCKAYTTLAYDLDYWGQGTQVTVSS,high polyreactivity
7,QVQLVESGGGLVQAGGSLRLSCAASGRIIGYYAMGWYRQAPGKERELGAAITRGGSTNYADSVKGRFTISRDNAKNTVYLQMNSLKPEDTAVYYCAADLARYGKRYDYWGQGTQVTVSS,low polyreactivity
8,QVQLVESGGGLVQAGGSLRLSCAASGRIIPGNAMGWYRQAPGKERELVAAISWGGGSTYYADSVKGRFTISRDNAKNTVYLQMNSLKPEDTAVYYCNAGVSIGRSRRYDYWGQGTQVTVSS,low polyreactivity
9,QVQLVESGGGLVQAGGSLRLSCAASGRIIQYNAMGWYRQAPGKERELVAAISWRSRRTYYADSVKGRFTISRDNAKNTVYIQMNSLKPEDTAVYYCAATSRTSWYGYWGQGTQVTVSS,high polyreactivity
10,QVQLVESGGGLVQAGGSLRLSCAASGRIIRDNAMGWYRQAPGKERELVAAISRRGGSTYYADSVKGRFTISRDNAKNTVYLQMNSRKPEDTAVYYCNKTTHSRTFRYDYWGQGTQVTVSS,low polyreactivity
11,QVQLVESGGGLVQAGGSLRLSCAASGRIIRPYAMGWYRQAPGKERDFVATIRFTTGRTYYADSVKGRFTISRDNAKNTVYLQMNSLKPDDTAVYYCAADFAFVNYAKISYTTHDYWGQGTQVTVSS,high polyreactivity
12,QVQLVESGGGLVQAGGSLRLSCAASGRIIRQYAMGWYRKAPGKERELVAVISAGGARTYYADSVKGRFTISRDNAKNTVYLQMNSLKPEDTEVYYCAAELPTSQYDYYYWGQGTQVTVSS,high polyreactivity
13,QVQLVESGGGLVQAGGSLRLSCAASGRIISINAMVWYRQAPGKERELVAAINSGGSTHYADSVKGRFTISRDNAKNTVYLQMNSLKPEDTAVYYCAARKTVSYFRVRTFDYWGQGTQVTVSS,low polyreactivity
14,QVQLVESGGGLVQAGGSLRLSCAASGRIISRYAMGWYRQAPGKERELVAAISRRGGSTYYADSVKGRFTISRDNAKNTVYLQMNSLKPEDTAVYYCAAVRRKTAGGLEDYWGQGTQVTVSS,high polyreactivity
15,QVQLVESGGGLVQAGGSLRLSCAASGRIISSYAMVWYRQAPGKETELVAAISWDGGSTYYADSVKGRFTISRDNANNTVYLQMNSLKPEDTAVYYCATDATRPWYDYWGQGTQVTVSS,low polyreactivity
16,QVQLVESGGGLVQAGGSLRLSCAASGRIISYNAMGWYRQAPAKERELVAAISWGGGSTYYADSVKGRFTISRDTAKNTVYLQMNSLKPEDTAVSYCAKGWYRIKRNDYWGQGTQVTVSS,low polyreactivity
17,QVQLVESGGGLVQAGGSLRLSCAASGRIISYNAMGWYRQAPGKERELVAAISWGGGSTYYADSVKGRFTISRDNAKNTVYLQLNSLKPEDTAVYYCAKGWYRIKRNDYWGQGTQVTVSS,low polyreactivity
18,QVQLVESGGGLVQAGGSLRLSCAASGRIITEYVTGCYTQAPGKERELDAAAITRGGSTNYADSVKGRFTLSRDNAKNTVYLQKNSLIPEDTAVYHCNKDDWPVSRQLYTGKHDSWGQGTQVTVSS,low polyreactivity
19,QVQLVESGGGLVQAGGSLRLSCAASGRIITKYTMGWYRQAPGKERELFAAISRSDRTNYADSVKGRFTISRDNAKNTVYLQMNSLKPEDTAVYYCNARHSYWTGRRVTDDYDYRGQGTQVTVSS,high polyreactivity
20,QVQLVESGGGLVQAGGSLRLSCAASGRIITRYTMGWYRQAPGKERELVASITSSGSSTYYADSVKGRFTISRDNAKNTFYLQMNSLKPEDTAVYYCAARSRLRYLYDYWGQGTQVTVSS,high polyreactivity
21,QVQLVESGGGLVQAGGSLRLSCAASGRIIVDNTMGWYRQAPGQEREFVAVITSGGSTNYADSVKGRYTISRDNAKNTVYLQMNCLNPEDTAVYYCATEPGGYRFDDRPFQFGYWGQGTQVTVSS,low polyreactivity
22,QVQLVESGGGLVQAGGSLRLSCAASGRIIVNNAMGWYRQAPGKERELVAAITRRGGSTYYADSVKGRFTISRDNAKNTVYLQMNSLKPEDTAVYYCARSNQRTVYVASDYWGQGTQVTVSS,high polyreactivity

row,Sequence,polyreactivity (PSR sort gate)
1,QVQLVESGGGLVQAGGSLRLSCAASGRIIWKNTMGWYRQAPGKERELVAAITYGGSTNYADSVKGRFTISRDNAKNTVYLQMNSLKPEDTAVYYCNAQISWDSGWGYSYHLDYWGQGTQVTVSS,low polyreactivity
2,QVQLVESGGGLVQAGGSLRLSCAASGRIIYKNAMGWYRQAPGKERELVAAITSSGGSTYYADSVKGRFTISRDNAKNTVYLQMNSLKPEDTAVYYCAAYAYGRFGKLNYWGQGTQVTVSS,low polyreactivity
3,QVQLVESGGGLVQAGGSLRLSCAASGRIIYPNAIGWYRQAPGKERELVAGITSRGGSTYYADSVKGRFTSSRDNAKNTVYLQMNSLKPEDTAVYYCAKRYYYFYPDYDYWGQGTQVTVSS,high polyreactivity
4,QVQLVESGGGLVQAGGSLRLSCAASGRIIYSNAMGWYRQAHGKERELVASISPNTGTTYYADSVKGRFTISLDNAKNTVYLQMNSLKPEDTAVYYCAARGGYYQDGLVTGEAEYGYWGQGTQVTVSS,low polyreactivity
5,QVQLVESGGGLVQAGGSLRLSCAASGRIKDNVMGWYRQAPGKERELVAAITRSAGRTYYADSVKGRFTISRDNAKNTVYLQMNSLKPEDTAVYYCAAQAERYGYEYWGQGTQVTVSS,low polyreactivity
6,QVQLVESGGGLVQAGGSLRLSCAASGRILAGYAMGWYRQAPGKERELVAVISVGTGSTYYADSVKGRFTISRDNAKNTVYLQMNSLKPEDTAVYYCAAVTAITSLRMGYWGQGTQVTVSS,low polyreactivity
7,QVQLVESGGGLVQAGGSLRLSCAASGRILASNVMGWYRQAPGKEREFVASITYSGSSTYYADSVKGRFTISRDNAKNTVYLQMNSLKPEDTAVYYCATRYGYSDGDYWGQGTQVTVSS,low polyreactivity
8,QVQLVESGGGLVQAGGSLRLSCAASGRILFGYAMGWYRQAPGKERELVADITSTGSTNYADSVKGRFTISRDNAKNTVYLQMNSLKPEDTAVYYCNARRESYYQRYRVDYWGQGTQVTVSS,low polyreactivity
9,QVQLVESGGGLVQAGGSLRLSCAASGRILFHYAMGGSRPAPGKERELVAAITWRGGGTHYADSVKGRFTISRDNAKNTVYLQMNSLKPEDNAVYYCAADGWTYVYDYGYWGQGTQVTVSS,low polyreactivity
10,QVQLVESGGGLVQAGGSLRLSCAASGRILFYYGMGWYRQAPGKERELVAAISKRGGSTYYADSVKGRFTISRDNAKNTVYLQMNSLKPEDTAVYYCAAVQPAWGNGYWGQGTQVTVSS,high polyreactivity
11,QVQLVESGGGLVQAGGSLRLSCAASGRILGAYAMGWYRQPPGKERELVASISSGGRTYYADSVKGRFTISRDNAKNTVYLQMNSLKPEATAVYYCAKKKQLSVPASGYDYVYYWGQGTQVTVSS,high polyreactivity
12,QVQLVESGGGLVQAGGSLRLSCAASGRILGNNVMGWYRQAPGKERELVAAITSSGGRTYYADSVKGRFTISRDNAKNTVYLQMNSLKPEDTAVYYCAAERRYYGKFNYWGQGTQVTVSS,high polyreactivity
13,QVQLVESGGGLVQAGGSLRLSCAASGRILGQYVMGWYRQAPGKERELVASIRSGGVSTYYADSVKGRFTISRDNAKNTVYLQMNSLKPEDTAVYYCAKGSPGPRRYKFDYWGQGTQVTVSS,low polyreactivity
14,QVQLVESGGGLVQAGGSLRLSCAASGRILGYYAMGWSRQAPGKEREFVAAITTRGGNTYYADSVKGRFTISRDNAKNTVYLQMNSLKPEDTAVYYCAAESYTYRDAPTYFTRMYYWGQGTQVTVSS,high polyreactivity
15,QVQLVESGGGLVQAGGSLRLSCAASGRILHANAMGWYRQAPGKEREFVAAISVSGVSTYYADSVKGRFTISRDNAKNTVYLQMNSLKPEDTAVYYCNAETYSWYDYWGQGTQVTVSS,high polyreactivity
16,QVQLVESGGGLVQAGGSLRLSCAASGRILKWNARGWYRHAPGKERELVAAISQSGGSTYYADSVKGRFTISRDNAKNTVYLQMNSLKPEDTAVYYCAARRGSKFWGQGTQVTVSS,low polyreactivity
17,QVQLVESGGGLVQAGGSLRLSCAASGRILKYYDMGWYRQAPGKERELVAAISVSGTSTYYADSVKGRFTISRDNAKNTVYLQMNSLKPEDTAVYYCATATGRYSFDYWGQGTQVTVSS,low polyreactivity
18,QVQLVESGGGLVQAGGSLRLSCAASGRILKYYDMGWYRQAPGKERELVAAISVSGTSTYYADSVKGRFTISRDNAMNTVYLQMNSLKPEVTAVYYCATATGRYSFDYWGQGTQVTVSS,low polyreactivity
19,QVQLVESGGGLVQAGGSLRLSCAASGRILKYYDMGWYRQAPGKETELVAAISVSGTSTYYADSVKGRFTISRDNAKNTVYLQMNSLKPEDTAVYYCATATGRYSFDYWGKGTQVTVSS,low polyreactivity
20,QVQLVESGGGLVQAGGSLRLSCAASGRILNSYAMGWYRQAPGKEREFVAAIRRSRGSPYYADSVKGRFTISRDNAKNTVYLQMNSLKPEETAVYYCAAGRRYSGSYDYWGQGTQVTVSS,high polyreactivity
21,QVQLVESGGGLVQAGGSLRLSCAASGRILPSNAMGWYRQSPGKERELVATISSSGGDTYYADSVKGRFTISRDNAKNTVYLQMNSLKPEDTAGYYCAADSTWEGGYKYEYWGQGTQVTVSS,low polyreactivity
